Laboratory results as given in article PMC3948464 (Nature Communications, 2014).

Molecular target: GST-AK2 (glutatione S-transferase-adenylate kinase 2) (human, UniProt P54819 1-239)
Assay: SEC

binding result: binds
B1: His-DUSP26 (enzyme)
chain: MCPGNWLWASMTFMARFSRSSSRSPVRTRGTLEEMPTVQHPFLNVFELERLLYTGKTACNHADEVWPGLYLGDQDMANNRRELRRLGITHVLNASHSRWRGTPEAYEGLGIRYLGVEAHDSPAFDMSIHFQTAADFIHRALSQPGGKILVHCAVGVSRSATLVLAYLMLYHHLTLVEAIKKVKDHRGIIPNRGFLRQLLALDRRLRQGLEA
